Laboratory results from the RNAGym collection of RNA variant scans (doi:10.1073/pnas.2313332121).

B1: TPR t1 (parent)
chain: GACCAAUCUGCCCUCAGAGCUCGAGAACAUCUUCGGAUGCAGAGGAGGCAGGCUUCGGUGGCGCGAUAGCGCCAACGUCCUCAACCUCCAAUGCAUCCCACCACAUGAUGAUGCCUGAAGAGCCUUGGUUUUUUG

Variants of: B1
Assay: polymerase ribozyme fitness, log enrichment relative to wild type (log ratio); higher = more active; in vitro selection for triplet polymerase activity
How it was run: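 Frozen incubation at −7 °C formed the core of a single, triplicate in vitro selection round applied to PCR-built, transcribed mutant libraries of each subunit of a heterodimeric triplet polymerase ribozyme. Extended constructs were gel-excised, captured with streptavidin beads and amplified by RT-PCR, and input and output libraries were Illumina-sequenced with a filter of ≥10 input reads and ≥1 read per output. Fitness is the logarithm of genotype enrichment relative to wild-type enrichment, with inverse-variance-weighted replicate averaging, and the logarithm is base 2.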

Variant	polymerase ribozyme fitness (log ratio)
C72A U112C	1.48
C70G C98U	-2.99
C70G G117C	-5.07
C73A C88U C114G A118U	-3.36
C72U G77A A111U G113A	-5.99
C73A C88A C89A U112G A119C	-2.76
C72U G120C C123G	0.164
C70G C123G	-0.392
C72A U92A A119G G127C	-1.04
C72U C89A C104U U125G	-1.18
C70G A111G G135U	-4.58
C70U C104U U130G	-0.752
G71A C73U	-2.15
G71U C94U G117C	-3.99
C72A C114A G122A	-2.11
G71A A105U	-3.04
C72U C123U	0.155
C73A A103G G110A	-6.42
G71A A119G	-0.102
C70U A111G G120C	-4.93
C72U A83U	-1.1

Variant	polymerase ribozyme fitness (log ratio)
G71C C124G G128U	-1.25
C73A A100C A119U	-1.6
C70U C80U	-0.851
G71A C115A C123U	-2.76
C72G A119U C124G	1.57
G71U C99U G120U	-4.26
G71A U116A	-3.85
G71A U116C	-1.26
C72A A83U G128U	-2.86
C72A C101A	-1.15
G71C U78G	-3.19
G71A C114U G127U	-5.52
C72A C98A	-4.32
G71C U130G	-1.76
C70U U96G	-1.09
C70G A111C	-3.24
C70G A111U	-5.55
G71U G113C	-1.47
G71U G113U	-1.67
C72A U92A	-2.67
G71U G135C	0.388

Variant	polymerase ribozyme fitness (log ratio)
G71U C99U U129A	-5.39
C70U C80U A90C C98U	-5.92
C72A C82A C97G C114G	-5.93
C70U U106A	-0.205
C70U C73A C102U A118U	-2.08
G71A U129G	-2.44
C72G U132A	-0.151
C72A G107U	-3.81
C72U U81G U87A C102A	-7.12
C72U C88G A90C A91G	-4.6
C70U C101A U106C U133A	-0.685
G71U G113C C114U G128A	-3.3
G71C C82A U112A A118U	-0.627
C70U G77C	-1.78
C72A U109C	-2.36
G71U A83U	-0.358
C72A A75C U87G C102A U116A C124U U130A	-5.54
C72G G93C	-1.92
C72A U78A	0.142
C72A U78C	-0.145
C70A U125A G128A	-3.04

Variant	polymerase ribozyme fitness (log ratio)
C70U C72G C115U G117A	-5.53
C72U C94A U125A	-1.59
G71A A91C C114U U133C	-2.15
G71U C82A	-1.91
G71U A121G U125A	1.48
C72A G93C C102A U106A G110A U125A G127A	-6.51
G71A A83G U133G	-2.31
C72U U116A G120U	-1.54
G71A A84C	-0.48
C70U C102U U132A	-2.52
C72G C102A	-2.79
G71U G93A C104U	-0.466
G71U U96C	-0.38
C70A U106A	-1.51
C72U A91C G127A	-2.46
C72G U78C	-0.909
C72U U78C U106C G117A A118U U125G	-5.09
C73A C94G	-0.66
C73A C94A	-0.492
C70U G128A	-2.28
